This note sets out measurements from article PMC8795421 (2022).

To fix the notation:
B1: Biotinylated recombinant CD97, N-terminal extracellular domain (residues 24-540) with Fc domain and avidin tag (Fc fusion)
chain: RGCARWCPQNSSCVNATACRCNPGFSSFSEIITTPTETCDDINECATPSKVSCGKFSDCWNTEGSYDCVCSPGYEPVSGAKTFKNESENTCQDVDECQQNPRLCKSYGTCVNTLGSYTCQCLPGFKFIPEDPKVCTDVNECTSGQNPCHSSTHCLNNVGSYQCRCRPGWQPIPGSPNGPNNTVCEDVDECSSGQHQCDSSTVCFNTVGSYSCRCRPGWKPRHGIPNNQKDTVCEDMTFSTWTPPPGVHSQTLSRFFDKVQDLGRDSKTSSAEVTIQNVIKLVDELMEAPGDVEALAPPVRHLIATQLLSNLEDIMRILAKSLPKGPFTYISPSNTELTLMIQERGDKNVTMGQSSARMKLNWAVAAGAEDPGPAVAGILSIQNMTTLLANASLNLHSKKQAELEEIYESSIRGVQLRRLSAVNSIFLSHNNTKELNSPILFAFSHLESSDGEAGRDPPAKDVMPGPRQELLCAFWKSDSDRGGHWATEGCQVLGSKNGSTTCQCSHLSSFAILMAHY
modifications: biotin (in situ biotinylation by BirA-ER during expression)
B2: DAF-Fc (decay accelerating factor, DAF/CD55, fused to the human IgG1 Fc region) (Fc fusion)
chain: DCGLPPDVPNAQPALEGRTSFPEDTVITYKCEESFVKIPGEKDSVICLKGSQWSDIEEFCNRSCEVPTRLNSASLKQPYITQNYFPVGTVVEYECRPGYRREPSLSPKLTCLQNLKWSTAVEFCKKKSCPNPGEIRNGQIDVPGGILFGATISFSCNTGYKLFGSTSSFCLISGSSVQWSDPLPECREIYCPAPPQIDNGIIQGERDHYGYRQSVTYACNKGFTMIGEHSIYCTVNNDEGEWSGPPPECRGKSLTSKVPPTVQKPTTVNVPTTEVSPTSQKTTTKTTTPNAQATRSTPVSRTTKHFHETTPNKGSGTTS

What all share (test): BLI
Experiment [1] concerns the target CD97 Ab with same binding site as DAF-Fc.
The target in another experiment is CD97 Ab with known Kd.
Experiment [2] deals with B1.

As for B1, the dissociation constant (Kd) (usually the constant that tells how readily two partners part at equilibrium) in experiment [1] is 4.5 nM; with CD97 Ab with known Kd, 7700 nM.

On to B2, for which, in experiment [2], the Kd was determined as 340 nM.
